These results are taken from paper PMC12912723 (eLife, 2026).

Positions count from the first letter of the chain named. Where two headings read alike, the source gives them in different places.

The target in test [1] is T1, PscF from strain PAO1 (Pseudomonas aeruginosa PAO1, UniProt P95434).
Test [2] addresses T1, PscF from strain PAO1. Kind of test: ELISA; competition ELISA; serial dilutions of competitor mAbs on antigen-coated wells for 30 min, then biotinylated mAbs at their EC70; detected with AP-conjugated streptavidin. The note with it: both partners purified.

T1 sequence (P95434 whole entry): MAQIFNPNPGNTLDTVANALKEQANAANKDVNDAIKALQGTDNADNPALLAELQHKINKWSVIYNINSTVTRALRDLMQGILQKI

B1: P3G7 (antibody, V domains shown)
VH: EVQLVESGGGLVQPGRSLTLSCAVTGFIVRDYHIDWVRQAPGKGLEWVGRARNKASRYRVVYAASLKDRFTIIRDDSKNSIYLRMSSLKTEDAAMYFCVRVGHYDTQGYALDDYDVWGQGTAVTVSS
VL: QSVLTQSPSVSAAPGQRVTIHCFGSSSTIGSNQLSWYQQVPGTAPKLLIYDSDKRPSGIPDRFSASKSGTSGTLDISGLQSGDEADYYCETWDDTLKAVVFGGGTKLTVL
Consider B1, for which the binding result with PscF from strain PAO1 [1] is reported as “binds”.

B2: P5G10 (human anti-PscF monoclonal antibody) (antibody, V domains shown)
VH: VQLQQWGAGLLKPSETLSLTCAVYGGSFSDYYWTWIRQAPGKGLEWIGENRHRGTTNYNPSLKGRVTISVDTSKNQFTLKVTSVTAADTAVYFCARQRGSSGGAPSGLDVWGQGTTVTVSS
VL: QSVLTQPPSASGTPGQRVTISCSGASSNIGTNYVFWYQQFPGTAPKLLIYRNGHRPSGVPDRFSGSKSGASASLAISGLRSDDEADYYCATWDDSLSSQVFGGGTKLTVL
notes: also called P5G10 mAb
With B2, the binding result with PscF from strain PAO1 [2] is “binds”.

B3: P1D7 (antibody, V domains shown)
VH: EVQLLESGGGLVQPGGSLRLSCAASGFTFTSYAMSWVRQAPGKGLEWVSALSNSGDSTYYADSVKGRFTISRDNSKNTLYLQMHSLRVEDTAVYYCAKDREGDYGDYVFDYWGQGTLVTVSS
VL: SYVLTQPPSVSVAPGQTARIPCGGNNIGRKSVHWYQQKPGQAPVLVVYDDSDRPSGIPERFSGSNSGNTATLTISRVEAGDEADYYCQVWDSSDDLVVFGGGTTLTVL
For the molecule B3, the binding result with PscF from strain PAO1 [1] is “binds”.

B4: P3G2 (antibody, V domains shown)
VH: QVQLQESGPGLVKPSETLSLTCSVSGGSVASGDFYWSWVRQPAGTGLEWIGRVSTSGSTNCNPSLKSRVTISIDTSKNEFSLRLPSVTAADTAVYYCARYRPGSGGLGVYYDYWGQGILVTVSS
VL: QSALTQPPSASGSPGQSVTISCTGASSDIGGYNYVSWYQQHPGRAPRLMIYEVHNRPSGVPDRFSGSKSGNTASLTVSGLQAEDEADYYCMSYAGGNILLFGGGTKLTVL
Turning to B4, in the test with PscF from strain PAO1 [1], the binding result is “binds”.

B5: P1B7 (antibody, V domains shown)
VH: EVQLLESGGGLVQPGGSLRLSCAASGFTFKSYAMSWVRQAPGKGLEWVSAISGSGGSKYYADSVKGRFTISRDDSKNTLYLQMNSLRVEDTAVYYCAKPLLDSVYCLESWGQGTLVTVSS
VL: DIQMTQSPSSLSASVGDRVTITCRASQDISNYLSWYQQRPGKAPKSLIYAAFRLQSGVPSKFSGSGSGTDFTLTISSLQPEDFATYYCQQYYTYPPTFGQGTKLEIK
As for B5, in the test with PscF from strain PAO1 [1], the binding result is “binds”.

B6: P5D5 (antibody, V domains shown)
VH: B5 VH with K30N, S31N, N77S, T78R, V93L, A97T, D102E, C106Y
VL: B5 VL with D28G, Y32H, S34A, Y36F, R39K, F52S, K61R, T85S, T93S, T97A
Consider B6, for which the binding result in the test with PscF from strain PAO1 [1] is on record as “binds”.

B7: P1D5 (antibody, V domains shown)
VH: QVQLHESGPGLVEPSQTLTLTCTVSGGSTDSDGVYWTWIRQPAGKGLEWIGRIDNRGTYSYNPSLRSRITISEEPSQNQFSLRVRSLTAADAGVYYCAREVRRLQGRRYYYYGTDVWGPGTTVTVSS
VL: DIVMTQSPLSLSVTLGESASISCRSSQSLLHTNAYNYLDWYLQRPGQSPQLLIYLSSVRASGVPDRFSGRGSGTDFTLKISRVEAEDVGIYFCMQALEMPFTFGPGTKVDIK
For B7, the binding result in the test with PscF from strain PAO1 [1] is listed as “binds”.
